{"source": "patent US20170128468A1", "about": "“PHOSPHATIDYLGLYCEROL AS AN ANTI-INFLAMMATORY” (Agusta University Research Institute, Inc., priority 2015, published 2017)", "molecules": {"B1": {"name": "HSPB4: recombinant small heat shock protein, a DAMP shown to mediate sterile corneal inflammation (protein, UniProt P02489 1-173, looked up)", "Alpha-crystallin A chain": "MDVTIQHPWFKRTLGPFYPSRLFDQFFGEGLFEYDLLPFLSSTISPYYRQSLFRTVLDSGISEVRSDRDKFVIFLDVKHFSPEDLTVKVQDDFVEIHGKHNERQDDHGYISREFHRRYRLPSNVDQSALSCSLSADGMLTFCGPKIQTGLDATHAERAIPVSREEKPTSAPSS"}, "B2": {"name": "S100A9: recombinant anti-microbial protein, a DAMP that activates TLR2 (as well as TLR4) (protein, UniProt P06702 1-114, looked up)", "Protein S100-A9": "MTCKMSQLERNIETIINTFHQYSVKLGHPDTLNQGEFKELVRKDLQNFLKKENKNEKVIEHIMEDLDTNADKQLSFEEFIMLMARLTWASHEKMHEGDEGPGHHHKPGLGEGTP"}, "B3": {"name": "denatured (heated) S100A9: heat-denatured recombinant S100A9 protein (protein, UniProt P06702 1-114, looked up)", "Protein S100-A9": "B2 Protein S100-A9", "modifications": "heat-denatured", "notes": "heat-denatured recombinant S100A9 protein"}}, "key": {"TPA-induced ear edema": {"system": "TPA-induced ear edema", "assay": "Contact irritant (TPA) ear edema mouse in vivo model", "procedure": "Experiments were performed as described in (27). Briefly, the ears of three to five male ICR CD-1 outbred mice [25-30 g; 5-6 weeks of age from Harlan Laboratories (Indianapolis, Ind.)] were treated with acetone or TPA (0.03% in acetone), and at 1 h and 4 h after TPA, the appropriate vehicle or the treatment in vehicle was applied to each ear. Ear thickness was measured using a caliper both before and at approximately 18-20 h after TPA treatment prior to sacrifice. After sacrifice, a circular ear punch biopsy (4 mm^2) was taken, weighed, and fixed in formalin. Histological evaluation included H&E staining and immunohistochemical staining for CD45 to quantify the number of infiltrating immune cells (see below).\nSections (10 μm) were cut from formalin-fixed paraffin-embedded ear biopsies and deparaffinized and rehydrated as described in (28). […] Multiple random sections (4 to 8 per mouse separately from the left and right ear) were counted by two independent observers in a blinded fashion, counts averaged to determine a value for each mouse ear and values statistically analyzed as described below.\nExperiments were performed as described in Clark S P; Bollag W B; Westlund K N; Ma F; Falls G; Xie D; Johnson M; Isales C M; Bhattacharyya M H: Pine oil effects on chemical and thermal injury in mice and cultured mouse dorsal root ganglion neurons. […] Ear thickness was measured using a caliper both before and at approximately 18-20 h after TPA treatment prior to sacrifice. […] Histological evaluation included H&E staining and immunohistochemical staining for CD45 to quantify the number of infiltrating immune cells (see below).\nSections (10 μm) were cut from formalin-fixed paraffin-embedded ear biopsies and deparaffinized and rehydrated as described in (Voss K E et al., Arch. Dermatol. Res. 303 591-600 (2011)). […] Multiple random sections (4 to 8 per mouse separately from the left and right ear) were counted by two independent observers in a blinded fashion, counts averaged to determine a value for each mouse ear and values statistically analyzed as described below. […]"}, "[1]": {"system": "Pam3CSK4-induced inflammatory mediator expression in macrophage cell line RAW 264.7", "assay": "qRT-PCR of inflammatory mediator mRNA in RAW 264.7 macrophage cell line treated with Pam3CSK4", "assay_type": "cell-based, mouse", "details": "Pam3CSK4 1 or 2.5 μg/mL alone; 2 h; FIGS. 3A-3D", "procedure": "(§1) Primary cultures of mouse epidermal keratinocytes were prepared from ICR strain CD-1 outbred neonatal mice 1-3 days of age as described in detail in (Bollag W B, et al., J Invest Derm 100 240-246 (1993); Griner R, et al., J Biol Chem, 274 4663-4670 (1999)). All procedures were approved by the Institutional Animal Care and Use Committee. RAW264.7 cells, a mouse macrophage-derived cell line, were kindly provided by Drs. Qing Zhong and Carlos Isales (Augusta University) and were cultured in DMEM containing 10% fetal bovine serum and 1% penicillin and streptomycin.\n(§2) Keratinocytes were treated with or without TPA or a synthetic triacylated lipoprotein (Pam3CSK4), a TLR1/TLR2 agonist, or recombinant S100A9 (R&D Systems) or HSPB4 (MyBiosoruce) as indicated, for 2 hours in the presence and absence of different concentrations of soy PG or dioleoylphosphatidylglycerol (DOPG). Cells were harvested and RNA isolated using PerfectPure RNA tissue kits (5 PRIME, Inc, Gaithersburg, Md., USA) as per the manufacturer's protocol. Following verification of RNA integrity using a Nanodrop instrument (NanoDrop Technologies, Wilmington, Del.), RNA was reverse-transcribed to cDNA with iScript cDNA synthesis kits (Bio-Rad Laboratories, Hercules, Calif., USA) and analyzed by real-time PCR using Taqman primer/probe sets from Applied Biosystems (Life Technologies, Grand Island, N.Y.). Reactions were performed using Fast Reagent PCR Master Mix (Applied Biosystems) and a StepOnePlus Real-Time PCR System (Applied Biosystems) as instructed by the manufacturer. Expression of genes of interest was determined using the delta-delta Ct method normalized to the expression of GAPDH as the endogenous housekeeping gene and expressed relative to the appropriate control group."}, "[2]": {"system": "Pam3CSK4-induced inflammatory mediator expression in keratinocytes", "assay": "qRT-PCR of inflammatory mediator mRNA in keratinocytes treated with Pam3CSK4 (TLR1/2 agonist)", "assay_type": "cell-based, mouse", "details": "agonist alone, in vitro", "procedure": "as §1\nas §2, with “Reactions were performed using Fast Reagent PCR Master Mix (Applied Biosystems) and a StepOnePlus Real-Time PCR System (Applied Biosystems) as instructed by the manufacturer. Expression of genes of interest was determined using the delta-delta Ct method normalized to the expression of GAPDH as the endogenous housekeeping gene and expressed relative to the appropriate control group.” left out"}, "[3]": {"system": "NF-κB phosphorylation/activation in RAW264.7 cells", "assay": "Western analysis of NF-κB phosphorylation/activation in RAW264.7 cells stimulated with Pam3CSK4", "assay_type": "cell-based, mouse", "details": "2.5 μg/mL Pam3CSK4 alone; 10 minutes; FIG. 9", "procedure": "Membranes containing transferred proteins were blocked with 5% non-fat dry milk for at least 30 minutes before incubating with the appropriate primary antibodies, overnight, followed by washing and incubating with secondary antibodies for 1 h at room temperature. Immunoreactivity was visualized using infrared imaging on an Odyssey imaging system (LI-COR Biosciences, Lincoln, Nebr.)."}, "[4]": {"system": "S100A9-induced inflammatory mediator expression in keratinocytes", "assay": "qRT-PCR of inflammatory mediator mRNA in keratinocytes treated with recombinant S100A9 or LPS", "assay_type": "cell-based, mouse", "procedure": "as §1, §2"}, "[5]": {"system": "HSPB4-induced inflammatory mediator expression in RAW cell line", "assay": "qRT-PCR of inflammatory mediator mRNA in RAW 264.7 cells treated with recombinant HSPB4", "assay_type": "cell-based, mouse", "details": "0.1 or 1 μg/mL recombinant HSPB4 alone; 2 h; FIGS. 7A-7D", "procedure": "as §1\nas §2, with “Reactions were performed using Fast Reagent PCR Master Mix (Applied Biosystems) and a StepOnePlus Real-Time PCR System (Applied Biosystems) as instructed by the manufacturer. Expression of genes of interest was determined using the delta-delta Ct method normalized to the expression of GAPDH as the endogenous housekeeping gene and expressed relative to the appropriate control group.” left out"}, "[6]": {"system": "TNFα protein secretion by RAW264.7 cells", "assay": "TNFα protein secretion by ELISA in RAW264.7 culture supernatants", "assay_type": "cell-based, mouse", "details": "DAMP alone (S100A9 2 μg/mL; HSPB4 0.1 or 1 μg/mL); 2 h; FIGS. 8A-8B", "procedure": "Cells were treated with recombinant S100A9 or recombinant HSPB4 as indicated and media collected. TNFα levels were determined in the supernatant using an ELISA kit (BD Biosciences) according to the manufacturer's instructions.\nMouse TNFα ELISA kits from BD Biosciences (San Jose, Calif.) were used. RAW264.7 cells were treated with or without recombinant S100A9 or HSPB4 in the presence and absence of DOPG for 2 hours. Cell culture supernatants were collected and stored at −80° C. and subjected to a single freeze-thaw cycle. The ELISA assay was performed according to the manufacturer's instructions with the optical density detected in each sample within 30 minutes, at a wavelength of 450 nm and corrected at 570 nm."}, "[7]": {"system": "S100A9-induced inflammatory mediator expression in RAW 264.7 macrophage cell line", "assay": "qRT-PCR of inflammatory mediator mRNA in RAW 264.7 cells treated with recombinant S100A9", "assay_type": "cell-based, mouse", "details": "2 μg/mL recombinant S100A9 alone; 2 h; FIGS. 6A-6D", "procedure": "as §1\nas §2, with “Reactions were performed using Fast Reagent PCR Master Mix (Applied Biosystems) and a StepOnePlus Real-Time PCR System (Applied Biosystems) as instructed by the manufacturer. Expression of genes of interest was determined using the delta-delta Ct method normalized to the expression of GAPDH as the endogenous housekeeping gene and expressed relative to the appropriate control group.” left out"}, "[8]": {"details": "recombinant S100A9 alone, keratinocytes, data not shown"}}}
{"molecule": "CCCCCCCCCCCCCC(=O)O[C@@H]1[C@@H](C)[C@@]2(O)[C@@H](C=C(CO)C[C@]3(O)C(=O)C(C)=C[C@@H]23)[C@@H]2C(C)(C)[C@]12OC(C)=O", "note": "[TPA, 12-O-tetra-decanoylphorbol 13-acetate]", "values": [{"measurement": "increase in ear thickness", "setting": "TPA-induced ear edema; TPA alone, no subsequent treatment with vehicle, percent change from time 0", "value": "147±16", "unit": "%"}, {"measurement": "increase in ear weight", "setting": "TPA-induced ear edema; TPA alone, no subsequent treatment with vehicle, punch biopsy versus no-TPA mice", "value": "158±6", "unit": "%"}]}
{"molecule": "Pam3CSK4 [reference compound]", "values": [{"measurement": "mRNA levels of IL1α, IL1β, IL6 and TNFα upon stimulation", "setting": "[1]", "value": "up-regulated"}, {"measurement": "inflammatory mediator expression in keratinocytes treated with TLR2 agonist", "setting": "[2]", "value": "increased"}, {"measurement": "phosphorylation/activation of NF-κB (pNFκB/NFκB ratio)", "setting": "[3]", "value": "increased"}]}
{"molecule": "C=C1/C(=C\\C=C2/CCC[C@]3(C)[C@@H]([C@H](C)CCCC(C)(C)O)CC[C@@H]23)C[C@@H](O)C[C@@H]1O", "note": "[1,25-dihydroxyvitamin D3]", "values": [{"measurement": "effect on ear edema", "setting": "TPA-induced ear edema; agent alone in 95% ethanol/5% water, applied 1 and 4 h after 0.03% TPA, FIGS. 10A-10C", "value": "neither 1,25-dihydroxyvitamin D3 nor soy PG alone had a significant effect"}]}
{"molecule": "phosphatidylglycerol [PG]", "values": [{"measurement": "S100A9-induced expression of IL-1β", "setting": "[4]; 100 μg/mL DOPG with 3 μg/mL recombinant S100A9, 2 h, FIG. 5A", "value": "inhibited"}, {"measurement": "S100A9-induced expression of IL-6", "setting": "[4]; 100 μg/mL DOPG with 3 μg/mL recombinant S100A9, 2 h, FIG. 5B", "value": "inhibited"}, {"measurement": "S100A9-induced expression of TNFα", "setting": "[4]; 100 μg/mL DOPG with 3 μg/mL recombinant S100A9, 2 h, FIG. 5C", "value": "inhibited"}]}
{"molecule": "B1", "values": [{"measurement": "inflammatory mediator expression (IL1α, IL1β, IL6, TNFα mRNA)", "setting": "[5]", "value": "stimulate"}, {"measurement": "TNFα protein secretion", "setting": "[6]", "value": "induce"}]}
{"molecule": "B2", "values": [{"measurement": "inflammatory mediator expression (IL1α, IL1β, IL6, TNFα mRNA)", "setting": "[7]", "value": "increases"}, {"measurement": "IL-1α expression", "setting": "[4]; S100A9 alone, keratinocytes", "value": "only minimally stimulated"}, {"measurement": "expression of IL1β", "setting": "[4]; recombinant S100A9 alone, 1 to 3 μg/mL, 2 h, FIG. 4B", "value": "stimulated"}, {"measurement": "expression of IL6", "setting": "[4]; recombinant S100A9 alone, 1 to 3 μg/mL, 2 h, FIG. 4C", "value": "stimulated"}, {"measurement": "expression of TNFα", "setting": "[4]; recombinant S100A9 alone, 1 to 3 μg/mL, 2 h, FIG. 4D", "value": "stimulated"}, {"measurement": "expression of TLR1", "setting": "[4]; [8]", "value": "induced"}, {"measurement": "expression of TLR2", "setting": "[4]; [8]", "value": "induced"}, {"measurement": "TNFα protein secretion", "setting": "[6]", "value": "induce"}]}
{"molecule": "B3", "values": [{"measurement": "stimulating inflammatory mediator mRNA levels, relative to native S100A9", "setting": "[4]; denatured (heated) protein, keratinocytes", "value": "significantly less effective"}]}
